In publication PMC10094569 one finds stoichiometry N data, which are given here for one substance.

In this test the target is human IgG1 Fc, from HEK-293T cells (human). The test can be described thus: SEC; each protein alone on Superdex 200 in PBS; molecular weights from the filtration patterns. In general terms: Size exclusion chromatography separates by hydrodynamic size, large species first.

In general, stoichiometry N refers to a count of units in the complex or per binding partner. In turn, “human IgG1 Fc, from HEK-293T cells (domain or fragment)” registered a stoichiometry N of 2.
